Literature values in publication doi:10.1101/2024.09.05.611512.

Experiments:
[1] = target: S100A10 (Homo sapiens) (UniProt P60903)
[2] = target: calpain 1 & 2 (Homo sapiens) (UniProt P07384)
UniProt P07384, sequence (P07384 2-714): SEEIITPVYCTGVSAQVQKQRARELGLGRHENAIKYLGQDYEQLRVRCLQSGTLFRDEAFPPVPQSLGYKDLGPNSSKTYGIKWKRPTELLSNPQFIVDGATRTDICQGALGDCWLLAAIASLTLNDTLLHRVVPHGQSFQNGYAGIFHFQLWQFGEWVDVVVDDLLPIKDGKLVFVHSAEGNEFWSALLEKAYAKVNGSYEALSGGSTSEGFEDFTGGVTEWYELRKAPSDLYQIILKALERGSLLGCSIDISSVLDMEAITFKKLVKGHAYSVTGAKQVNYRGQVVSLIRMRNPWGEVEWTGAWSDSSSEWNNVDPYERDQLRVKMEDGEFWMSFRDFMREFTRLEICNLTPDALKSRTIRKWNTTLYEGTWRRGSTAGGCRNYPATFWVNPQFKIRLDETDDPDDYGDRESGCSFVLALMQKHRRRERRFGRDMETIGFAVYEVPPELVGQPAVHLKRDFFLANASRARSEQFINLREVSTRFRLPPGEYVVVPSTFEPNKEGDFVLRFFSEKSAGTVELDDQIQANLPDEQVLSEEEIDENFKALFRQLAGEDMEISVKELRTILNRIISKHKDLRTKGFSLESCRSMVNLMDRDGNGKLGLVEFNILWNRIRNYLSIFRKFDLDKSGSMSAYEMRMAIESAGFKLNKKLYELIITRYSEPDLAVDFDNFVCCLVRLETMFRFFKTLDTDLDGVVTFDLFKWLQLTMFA

UniProt P60903, sequence (P60903 whole entry): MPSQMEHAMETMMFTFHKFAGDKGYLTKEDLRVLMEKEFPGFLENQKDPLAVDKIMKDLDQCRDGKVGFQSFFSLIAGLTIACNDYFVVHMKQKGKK

Substance	Kd [1]	Ki [2]
annexin A2 first 10-12 residues (from UniProt P07355)	13 nM	–
calpastatin domain I (from UniProt P20810)	–	15 nM
